B1: human TFIIIC subunit TFIIIC63 (natural protein)
chain: MAAEAADLGLGAAVPVELRRERRMVCVEYPGVVRDVAKMLPTLGGEEGVSRIYADPTKRLELYFRPKDPYCHPVCANRFSTSSLLLRIRKRTRRQKGVLGTEAHSEVTFDMEILGIISTIYKFQGMSDFQYLAVHTEAGGKHTSMYDKVLMLRPEKEAFFHQELPLYIPPPIFSRLDAPVDYFYRPETQHREGYNNPPISGENLIGLSRARRPHNAIFVNFEDEEVPKQPLEAAAQTWRRVCTNPVDRKVEEELRKLFDIRPIWSRNAVKANISVHPDKLKVLLPFIAYYMITGPWRSLWIRFGYDPRKNPDAKIYQVLDFRIRCGMKHGYAPSDLPVKAKRSTYNYSLPITVKKTSSQLVTMHDLKQGLGPSGTSGARKPASSKYKLKDSVYIFREGALPPYRQMFYQLCDLNVEELQKIIHRNDGAENSCTERDGWCLPKTSDELRDTMSLMIRQTIRSKRPALFSSSAKADGGKEQLTYESGEDEEDEEEEEEEEEDFKPSDGSENEMETEILDYV
notes: TFIIIC63, subunit of human TFIIIC; coding gene from DNASU, codon-optimized for insect cells; No truncation is described; also called τ95 in yeast (homolog); GTC3C5 (so in the source); source: Sf21 insect cells, baculovirus, coexpressed with the other five hTFIIIC subunits; purified (anti-FLAG M2 agarose, Capto HiRes Q)

Tests used:
[1] = molecular target: T1, human TFIIIC subunit TFIIIC220 (human, UniProt Q12789 1-2109); assay: mass photometry; purified hTFIIIC alone; 1 μl of sample at 400 nM added to 19 μl of 20 mM Hepes pH 8, 150 mM KCl, 2 mM MgCl2, 5 mM DTT; Refeyn TwoMP; nanomolar concentrations; conditions: both partners purified
T1 construct: TFIIIC220, largest subunit of human TFIIIC; 2109 amino acids as printed; No truncation is described; the expected mass of 624 kDa is that of the intact complex; also called τ138 in yeast (homolog); GTF3C1; source: Sf21 insect cells, baculovirus, coexpressed with the other five hTFIIIC subunits; purified (anti-FLAG M2 agarose, Capto HiRes Q); not shown: 3x FLAG, C-terminal, kept

[2] = molecular target: the molecule itself; assay: cryo-EM structure; purified hTFIIIC (3.17 μM) alone or with human TRR-TCT3-2 tRNA gene DNA at a 1:1 molar ratio; EM buffer 20 mM Hepes pH 8, 225 mM KCl, 2 mM MgCl2, 5 mM DTT; 0.1% octyl-β-glucoside; separate reconstructions of τA and of dimeric τB
[3] = molecular target: B1; assay: as above; conditions: both partners purified

T1 sequence (Q12789 whole entry, the tested form may be a part): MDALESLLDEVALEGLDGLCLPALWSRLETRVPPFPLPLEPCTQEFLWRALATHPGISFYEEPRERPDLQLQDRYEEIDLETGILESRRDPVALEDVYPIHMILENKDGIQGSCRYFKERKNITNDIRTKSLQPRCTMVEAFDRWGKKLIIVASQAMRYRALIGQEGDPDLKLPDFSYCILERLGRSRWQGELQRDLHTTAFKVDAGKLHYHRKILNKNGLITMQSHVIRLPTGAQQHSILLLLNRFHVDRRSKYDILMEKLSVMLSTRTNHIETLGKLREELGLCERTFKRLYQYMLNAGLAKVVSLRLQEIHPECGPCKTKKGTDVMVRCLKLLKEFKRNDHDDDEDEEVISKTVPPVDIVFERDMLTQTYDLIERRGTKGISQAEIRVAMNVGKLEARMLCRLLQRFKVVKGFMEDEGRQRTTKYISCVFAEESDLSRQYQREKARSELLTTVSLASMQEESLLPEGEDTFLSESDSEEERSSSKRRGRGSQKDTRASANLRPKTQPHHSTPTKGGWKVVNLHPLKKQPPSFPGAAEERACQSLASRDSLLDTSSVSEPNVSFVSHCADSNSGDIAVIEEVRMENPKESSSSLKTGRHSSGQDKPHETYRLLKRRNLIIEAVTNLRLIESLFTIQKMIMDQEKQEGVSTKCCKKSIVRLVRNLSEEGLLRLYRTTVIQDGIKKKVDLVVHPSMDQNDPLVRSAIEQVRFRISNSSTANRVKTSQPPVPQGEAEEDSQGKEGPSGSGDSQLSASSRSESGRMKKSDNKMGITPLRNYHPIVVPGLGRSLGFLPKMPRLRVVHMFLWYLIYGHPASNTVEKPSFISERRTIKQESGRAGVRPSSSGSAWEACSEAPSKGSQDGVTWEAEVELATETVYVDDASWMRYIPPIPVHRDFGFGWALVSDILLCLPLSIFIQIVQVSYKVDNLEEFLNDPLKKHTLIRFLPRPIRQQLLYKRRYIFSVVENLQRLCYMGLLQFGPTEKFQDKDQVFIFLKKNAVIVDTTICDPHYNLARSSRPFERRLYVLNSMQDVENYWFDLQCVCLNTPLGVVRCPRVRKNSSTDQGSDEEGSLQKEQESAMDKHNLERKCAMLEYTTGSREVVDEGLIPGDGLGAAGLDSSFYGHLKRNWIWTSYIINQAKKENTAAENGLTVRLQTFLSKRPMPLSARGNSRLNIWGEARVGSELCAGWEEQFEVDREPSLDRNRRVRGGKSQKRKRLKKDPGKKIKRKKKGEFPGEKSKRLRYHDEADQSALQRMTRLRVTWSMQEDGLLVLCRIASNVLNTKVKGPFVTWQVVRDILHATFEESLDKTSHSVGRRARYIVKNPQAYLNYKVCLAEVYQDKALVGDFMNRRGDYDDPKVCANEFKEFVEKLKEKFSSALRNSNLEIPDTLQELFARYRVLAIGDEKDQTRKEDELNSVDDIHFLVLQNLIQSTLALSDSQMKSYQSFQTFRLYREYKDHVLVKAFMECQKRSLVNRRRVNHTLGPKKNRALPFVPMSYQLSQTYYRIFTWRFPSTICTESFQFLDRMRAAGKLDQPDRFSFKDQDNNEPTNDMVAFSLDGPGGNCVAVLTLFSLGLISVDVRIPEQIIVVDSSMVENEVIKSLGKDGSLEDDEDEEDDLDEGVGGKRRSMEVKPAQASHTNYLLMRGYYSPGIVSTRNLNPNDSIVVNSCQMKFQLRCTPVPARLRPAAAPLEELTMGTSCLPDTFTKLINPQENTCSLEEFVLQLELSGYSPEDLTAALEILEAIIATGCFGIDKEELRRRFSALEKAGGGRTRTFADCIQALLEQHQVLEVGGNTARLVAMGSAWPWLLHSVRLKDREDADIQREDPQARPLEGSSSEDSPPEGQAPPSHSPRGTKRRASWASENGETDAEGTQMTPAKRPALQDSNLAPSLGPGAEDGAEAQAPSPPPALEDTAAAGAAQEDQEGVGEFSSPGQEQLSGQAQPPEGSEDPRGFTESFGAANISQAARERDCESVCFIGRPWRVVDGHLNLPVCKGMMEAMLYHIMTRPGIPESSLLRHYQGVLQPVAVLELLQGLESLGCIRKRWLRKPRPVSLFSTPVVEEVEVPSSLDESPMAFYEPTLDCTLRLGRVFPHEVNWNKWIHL

Row | Binder | binding result [1] | stoichiometry N [2] | binding result [3]
1 | B1 | binds | – | –
2 | human TFIIIC subunit TFIIIC90 (natural protein, TFIIIC90, subunit of human TFIIIC; coding gene from DNASU, codon-optimized for insect cells; No truncation is described; also called τ60 in yeast (homolog); source: Sf21 insect cells, baculovirus, coexpressed with the other five hTFIIIC subunits; purified (anti-FLAG M2 agarose, Capto HiRes Q)) MNTADQARVGPADDGPAPSGEEEGEGGGEAGGKEPAADAAPGPSAAFRLMVTRREPAVKLQYAVSGLEPLAWSEDHRVSVSTARSIAVLELICDVHNPGQDLVIHRTSVPAPLNSCLLKVGSKTEVAECKEKFAASKDPTVSQTFMLDRVFNPEGKALPPMRGFKYTSWSPMGCDANGRCLLAALTMDNRLTIQANLNRLQWVQLVDLTEIYGERLYETSYRLSKNEAPEGNLGDFAEFQRRHSMQTPVRMEWSGICTTQQVKHNNECRDVGSVLLAVLFENGNIAVWQFQLPFVGKESISSCNTIESGITSPSVLFWWEYEHNNRKMSGLIVGSAFGPIKILPVNLKAVKGYFTLRQPVILWKEMDQLPVHSIKCVPLYHPYQKCSCSLVVAARGSYVFWCLLLISKAGLNVHNSHVTGLHSLPIVSMTADKQNGTVYTCSSDGKVRQLIPIFTDVALKFEHQLIKLSDVFGSVRTHGIAVSPCGAYLAIITTEGMINGLHPVNKNYQVQFVTLKTFEEAAAQLLESSVQNLFKQVDLIDLVRWKILKDKHIPQFLQEALEKKIESSGVTYFWRFKLFLLRILYQSMQKTPSEALWKPTHEDSKILLVDSPGMGNADDEQQEEGTSSKQVVKQGLQERSKEGDVEEPTDDSLPTTGDAGGREPMEEKLLEIQGKIEAVEMHLTREHMKRVLGEVYLHTWITENTSIPTRGLCNFLMSDEEYDDRTARVLIGHISKKMNKQTFPEHCSLCKEILPFTDRKQAVCSNGHIWLRCFLTYQSCQSLIYRRCLLHDSIARHPAPEDPDWIKRLLQSPCPFCDSPVF | binds | – | –
3 | human TFIIIC subunit TFIIIC110 (natural protein, TFIIIC110, subunit of human TFIIIC; No truncation is described; also called τ91 in yeast (homolog); GTF3C2; source: Sf21 insect cells, baculovirus, coexpressed with the other five hTFIIIC subunits; purified (anti-FLAG M2 agarose, Capto HiRes Q)) MDTCGVGYVALGEAGPVGNMTVVDSPGQEVLNQLDVKTSSEMTSAEASVEMSLPTPLPGFEDSPDQRRLPPEQESLSRLEQPDLSSEMSKVSKPRASKPGRKRGGRTRKGPKRPQQPNPPSAPLVPGLLDQSNPLSTPMPKKRGRKSKAELLLLKLSKDLDRPESQSPKRPPEDFETPSGERPRRRAAQVALLYLQELAEELSTALPAPVSCPEGPKVSSPTKPKKIRQPAACPGGEEVDGAPRDEDFFLQVEAEDVEESEGPSESSSEPEPVVPRSTPRGSTSGKQKPHCRGMAPNGLPNHIMAPVWKCLHLTKDFREQKHSYWEFAEWIPLAWKWHLLSELEAAPYLPQEEKSPLFSVQREGLPEDGTLYRINRFSSITAHPERWDVSFFTGGPLWALDWCPVPEGAGASQYVALFSSPDMNETHPLSQLHSGPGLLQLWGLGTLQQESCPGNRAHFVYGIACDNGCIWDLKFCPSGAWELPGTPRKAPLLPRLGLLALACSDGKVLLFSLPHPEALLAQQPPDAVKPAIYKVQCVATLQVGSMQATDPSECGQCLSLAWMPTRPHQHLAAGYYNGMVVFWNLPTNSPLQRIRLSDGSLKLYPFQCFLAHDQAVRTLQWCKANSHFLVSAGSDRKIKFWDLRRPYEPINSIKRFLSTELAWLLPYNGVTVAQDNCYASYGLCGIHYIDAGYLGFKAYFTAPRKGTVWSLSGSDWLGTIAAGDISGELIAAILPDMALNPINVKRPVERRFPIYKADLIPYQDSPEGPDHSSASSGVPNPPKARTYTETVNHHYLLFQDTDLGSFHDLLRREPMLRMQEGEGHSQLCLDRLQLEAIHKVRFSPNLDSYGWLVSGGQSGLVRIHFVRGLASPLGHRMQLESRAHFNAMFQPSSPTRRPGFSPTSHRLLPTP | binds | 2 | –
4 | human TFIIIC subunit TFIIIC102 (natural protein, TFIIIC102, subunit of human TFIIIC; No truncation is described; also called τ131 in yeast (homolog); GTF3C3; source: Sf21 insect cells, baculovirus, coexpressed with the other five hTFIIIC subunits; purified (anti-FLAG M2 agarose, Capto HiRes Q)) MSGFSPELIDYLEGKISFEEFERRREERKTREKKSLQEKGKLSAEENPDDSEVPSSSGINSTKSQDKDVNEGETSDGVRKSVHKVFASMLGENEDDEEEEEEEEEEEEEEETPEQPTAGDVFVLEMVLNRETKKMMKEKRPRSKLPRALRGLMGEANIRFARGEREEAILMCMEIIRQAPLAYEPFSTLAMIYEDQGDMEKSLQFELIAAHLNPSDTEEWVRLAEMSLEQDNIKQAIFCYTKALKYEPTNVRYLWERSSLYEQMGDHKMAMDGYRRILNLLSPSDGERFMQLARDMAKSYYEANDVTSAINIIDEAFSKHQGLVSMEDVNIAAELYISNKQYDKALEIITDFSGIVLEKKTSEEGTSEENKAPENVTCTIPDGVPIDITVKLMVCLVHLNILEPLNPLLTTLVEQNPEDMGDLYLDVAEAFLDVGEYNSALPLLSALVCSERYNLAVVWLRHAECLKALGYMERAAESYGKVVDLAPLHLDARISLSTLQQQLGQPEKALEALEPMYDPDTLAQDANAAQQELKLLLHRSTLLFSQGKMYGYVDTLLTMLAMLLKVAMNRAQVCLISSSKSGERHLYLIKVSRDKISDSNDQESANCDAKAIFAVLTSVLTKDDWWNLLLKAIYSLCDLSRFQEAELLVDSSLEYYSFYDDRQKRKELEYFGLSAAILDKNFRKAYNYIRIMVMENVNKPQLWNIFNQVTMHSQDVRHHRFCLRLMLKNPENHALCVLNGHNAFVSGSFKHALGQYVQAFRTHPDEPLYSFCIGLTFIHMASQKYVLRRHALIVQGFSFLNRYLSLRGPCQESFYNLGRGLHQLGLIHLAIHYYQKALELPPLVVEGIELDQLDLRRDIAYNLSLIYQSSGNTGMAQTLLYTYCSI | binds | – | –
5 | human TFIIIC subunit TFIIIC35 (natural protein, TFIIIC35, subunit of human TFIIIC; the ordered GTF3C6 gene encoded a serine in position 1, which was replaced by methionine; No truncation is described; also called τ55 in yeast (homolog); GTF3C6; source: Sf21 insect cells, baculovirus, coexpressed with the other five hTFIIIC subunits; purified (anti-FLAG M2 agarose, Capto HiRes Q)) MAAAADERSPEDGEDEEEEEQLVLVELSGIIDSDFLSKCENKCKVLGIDTERPILQVDSCVFAGEYEDTLGTCVIFEENVEHADTEGNNKTVLKYKCHTMKKLSMTRTLLTEKKEGEENIGGVEWLQIKDNDFSYRPNMICNFLHENEDEEVVASAPDKSLELEEEEIQMNDSSNLSCEQEKPMHLEIEDSGPLIDIPSETEGSVFMETQMLP | binds | – | binds

Reference: article PMC11811891, “Structural insights into human TFIIIC promoter recognition” (Science Advances, 2023)
